Experimental data from patent US9062100B2, “Anti-human TROP-2 antibody having anti-tumor activity in vivo” (LIVTECH, INC., dated 2015).
Where no end group is shown, it is not given here.

Experiments:
Table 7 peptide No. 4 = biological target: T1, Table 7 peptide No. 4 (human, not fully specified); assay: PEPSCAN CLIPS peptide ELISA
T1 peptide: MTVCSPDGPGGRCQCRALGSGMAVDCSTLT

Table 7 peptide No. 10 = biological target: T2, Table 7 peptide No. 10 (human); assay: PEPSCAN CLIPS peptide ELISA
T2 peptide: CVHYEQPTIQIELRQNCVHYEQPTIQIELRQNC

Table 7 peptide No. 31 = biological target: T3, Table 7 peptide No. 31 (human, not fully specified); assay: PEPSCAN CLIPS peptide ELISA
T3 peptide: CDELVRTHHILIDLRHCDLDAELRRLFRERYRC

Table 7 peptide No. 28 = biological target: T4, Table 7 peptide No. 28 (human, not fully specified); assay: PEPSCAN CLIPS peptide ELISA
T4 peptide: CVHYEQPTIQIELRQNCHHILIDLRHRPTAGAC

Table 7 peptide No. 15 = biological target: T5, Table 7 peptide No. 15 (human); assay: PEPSCAN CLIPS peptide ELISA
T5 peptide: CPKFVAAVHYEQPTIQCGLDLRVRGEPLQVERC

Table 7 peptide No. 22 = biological target: T6, Table 7 peptide No. 22 (human); assay: PEPSCAN CLIPS peptide ELISA
T6 peptide: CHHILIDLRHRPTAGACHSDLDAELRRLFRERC

Table 7 peptide No. 11 = biological target: T7, Table 7 peptide No. 11 (human); assay: PEPSCAN CLIPS peptide ELISA
T7 peptide: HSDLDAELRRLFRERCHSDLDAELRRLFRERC

Table 7 peptide No. 26 = biological target: T8, Table 7 peptide No. 26 (human, not fully specified; cysteine pairing not given here); assay: PEPSCAN CLIPS peptide ELISA
T8 peptide: CVHYEQPTIQIELRQNC

Table 7 peptide No. 21 = biological target: T9, Table 7 peptide No. 21 (human); assay: PEPSCAN CLIPS peptide ELISA
T9 peptide: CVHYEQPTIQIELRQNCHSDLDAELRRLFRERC

Table 7 peptide No. 2 = biological target: T10, Table 7 peptide No. 2 (human); assay: PEPSCAN CLIPS peptide ELISA
T10 peptide: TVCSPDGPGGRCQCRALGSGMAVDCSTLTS

Table 7 peptide No. 17 = biological target: T11, Table 7 peptide No. 17 (human); assay: PEPSCAN CLIPS peptide ELISA
T11 peptide: FQGRGGLDLRVRGEP

Table 7 peptide No. 29 = biological target: T12, Table 7 peptide No. 29 (human, not fully specified); assay: PEPSCAN CLIPS peptide ELISA
T12 peptide: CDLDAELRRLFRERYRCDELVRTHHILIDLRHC

Table 7 peptide No. 1 = biological target: T13, Table 7 peptide No. 1 (human); assay: PEPSCAN CLIPS peptide ELISA
T13 peptide: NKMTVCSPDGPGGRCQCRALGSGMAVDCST

Table 7 peptide No. 14 = biological target: T14, Table 7 peptide No. 14 (human); assay: PEPSCAN CLIPS peptide ELISA
T14 peptide: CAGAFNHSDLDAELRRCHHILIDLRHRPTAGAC

Table 7 peptide No. 25 = biological target: T15, Table 7 peptide No. 25 (human, not fully specified); assay: PEPSCAN CLIPS peptide ELISA
T15 peptide: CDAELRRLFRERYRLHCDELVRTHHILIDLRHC

Table 7 peptide No. 24 = biological target: T16, Table 7 peptide No. 24 (human, not fully specified); assay: PEPSCAN CLIPS peptide ELISA
T16 peptide: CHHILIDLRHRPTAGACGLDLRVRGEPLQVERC

Table 7 peptide No. 20 = biological target: T17, Table 7 peptide No. 20 (human); assay: PEPSCAN CLIPS peptide ELISA
T17 peptide: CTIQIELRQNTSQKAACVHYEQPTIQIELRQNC

Table 7 peptide No. 16 = biological target: T18, Table 7 peptide No. 16 (human); assay: PEPSCAN CLIPS peptide ELISA
T18 peptide: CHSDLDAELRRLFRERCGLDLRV

Table 7 peptide No. 8 = biological target: T19, Table 7 peptide No. 8 (human, not fully specified); assay: PEPSCAN CLIPS peptide ELISA
T19 peptide: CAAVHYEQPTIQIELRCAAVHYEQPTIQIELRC

Table 7 peptide No. 30 = biological target: T20, Table 7 peptide No. 30 (human, not fully specified); assay: PEPSCAN CLIPS peptide ELISA
T20 peptide: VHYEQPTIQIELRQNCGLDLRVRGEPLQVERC

Table 7 peptide No. 27 = biological target: T21, Table 7 peptide No. 27 (human, not fully specified); assay: PEPSCAN CLIPS peptide ELISA
T21 peptide: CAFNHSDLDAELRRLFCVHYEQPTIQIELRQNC

Table 7 peptide No. 3 = biological target: T22, Table 7 peptide No. 3 (human, not fully specified); assay: PEPSCAN CLIPS peptide ELISA
T22 peptide: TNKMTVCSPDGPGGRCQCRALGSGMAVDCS

Table 7 peptide No. 6 = biological target: T23, Table 7 peptide No. 6 (human, not fully specified); assay: PEPSCAN CLIPS peptide ELISA
T23 peptide: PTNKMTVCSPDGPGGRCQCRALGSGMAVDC

Table 7 peptide No. 9 = biological target: T24, Table 7 peptide No. 9 (human, not fully specified); assay: PEPSCAN CLIPS peptide ELISA
T24 peptide: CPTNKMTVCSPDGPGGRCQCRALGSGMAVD

Table 7 peptide No. 33 = biological target: T25, Table 7 peptide No. 33 (human, not fully specified); assay: PEPSCAN CLIPS peptide ELISA
T25 peptide: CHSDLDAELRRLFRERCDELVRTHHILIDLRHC

Table 7 peptide No. 12 = biological target: T26, Table 7 peptide No. 12 (human); assay: PEPSCAN CLIPS peptide ELISA
T26 peptide: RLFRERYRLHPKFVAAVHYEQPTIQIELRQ

Table 7 peptide No. 13 = biological target: T27, Table 7 peptide No. 13 (human); assay: PEPSCAN CLIPS peptide ELISA
T27 peptide: AVHYEQPTIQIELRQ

Table 7 peptide No. 19 = biological target: T28, Table 7 peptide No. 19 (human); assay: PEPSCAN CLIPS peptide ELISA
T28 peptide: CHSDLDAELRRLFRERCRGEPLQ

Table 7 peptide No. 7 = biological target: T29, Table 7 peptide No. 7 (human, not fully specified); assay: PEPSCAN CLIPS peptide ELISA
T29 peptide: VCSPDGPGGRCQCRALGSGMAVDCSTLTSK

Table 7 peptide No. 32 = biological target: T30, Table 7 peptide No. 32 (human, not fully specified); assay: PEPSCAN CLIPS peptide ELISA
T30 peptide: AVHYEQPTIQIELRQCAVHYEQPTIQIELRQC

Table 7 peptide No. 23 = biological target: T31, Table 7 peptide No. 23 (human, not fully specified); assay: PEPSCAN CLIPS peptide ELISA
T31 peptide: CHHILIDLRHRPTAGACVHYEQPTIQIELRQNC

Table 7 peptide No. 18 = biological target: T32, Table 7 peptide No. 18 (human); assay: PEPSCAN CLIPS peptide ELISA
T32 peptide: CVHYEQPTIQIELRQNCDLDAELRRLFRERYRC

human TROP-2 (hTROP-2) [1] = biological target: T33, human TROP-2 (hTROP-2) (human); assay: FACS on PK-59 cells
T33 chain: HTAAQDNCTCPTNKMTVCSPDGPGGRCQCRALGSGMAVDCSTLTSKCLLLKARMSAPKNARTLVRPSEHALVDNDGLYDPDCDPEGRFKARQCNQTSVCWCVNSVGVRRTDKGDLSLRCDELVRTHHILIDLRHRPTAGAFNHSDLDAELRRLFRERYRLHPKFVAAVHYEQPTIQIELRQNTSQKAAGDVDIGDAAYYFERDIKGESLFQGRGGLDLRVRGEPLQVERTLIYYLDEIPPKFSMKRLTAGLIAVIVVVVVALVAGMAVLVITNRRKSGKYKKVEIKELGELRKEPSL

[2] = biological target: T34, recombinant protein of the extracellular region of hTROP-2 (human); assay: ELISA of free antibody after equilibration with antigen in solution
T34 sequence: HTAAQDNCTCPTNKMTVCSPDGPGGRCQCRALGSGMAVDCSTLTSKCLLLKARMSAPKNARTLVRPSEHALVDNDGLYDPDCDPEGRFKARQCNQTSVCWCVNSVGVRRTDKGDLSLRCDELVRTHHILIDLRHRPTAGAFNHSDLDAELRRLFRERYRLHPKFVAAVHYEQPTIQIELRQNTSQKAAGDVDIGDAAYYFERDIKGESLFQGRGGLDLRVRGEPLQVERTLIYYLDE

human TROP-2 (hTROP-2) [3] = biological target: T33, human TROP-2 (hTROP-2); assay: FACS on BxPC-3 cells

B1: anti-hTROP-2 monoclonal antibody K5-70 (antibody, V domains shown)
VH: QVQLQQPGAELVRPGASVKLSCKASGYTFTIYWINWVKQRPGQGLEWIGNIYPSDSYTNYNQKFKDKATLTVDKSSSTAYMQLSSPTSEDSAVYYCTRTSMADYWGQGTTLTVSS
VL: DILLTQSPAILSVSPGERVSFSCRASQSIGTSIHWYQQRTNGSPRLLIKYASESISGIPSRFSGSGSGTDFTLSINSVESEDIADYYCQQSNSWPFTFGSGTKLEIK
With B1 the “binding of K5-70” value (Table 7 peptide No. 4) was 2400, the “binding of K5-70” value (Table 7 peptide No. 10) was 825 and the “binding of K5-70” value (Table 7 peptide No. 31) was 469. The “binding of K5-70” value (Table 7 peptide No. 28) was 473, the “binding of K5-70” value (Table 7 peptide No. 15) was 579 and the “binding of K5-70” value (Table 7 peptide No. 22) was 489. The “binding of K5-70” value (Table 7 peptide No. 11) was 725, the “binding of K5-70” value (Table 7 peptide No. 26) was 483 and the “binding of K5-70” value (Table 7 peptide No. 21) was 511. For the same binder, the “binding of K5-70” value (Table 7 peptide No. 2) was 2600, the “binding of K5-70” value (Table 7 peptide No. 17) was 538 and the “binding of K5-70” value (Table 7 peptide No. 29) was 472. For the same binder, the “binding of K5-70” value (Table 7 peptide No. 1) was 2740, the “binding of K5-70” value (Table 7 peptide No. 14) was 624 and the “binding of K5-70” value (Table 7 peptide No. 25) was 483. For the same binder, the “binding of K5-70” value (Table 7 peptide No. 24) was 488, the “binding of K5-70” value (Table 7 peptide No. 20) was 513 and the “binding of K5-70” value (Table 7 peptide No. 16) was 538. For the same binder, the “binding of K5-70” value (Table 7 peptide No. 8) was 876, the “binding of K5-70” value (Table 7 peptide No. 30) was 470 and the “binding of K5-70” value (Table 7 peptide No. 27) was 478. The “binding of K5-70” value (Table 7 peptide No. 3) was 2560, the “binding of K5-70” value (Table 7 peptide No. 6) was 1390 and the “binding of K5-70” value (Table 7 peptide No. 9) was 839. The “binding of K5-70” value (Table 7 peptide No. 33) was 466, the “binding of K5-70” value (Table 7 peptide No. 12) was 687 and the “binding of K5-70” value (Table 7 peptide No. 13) was 642. For the same binder, the “binding of K5-70” value (Table 7 peptide No. 19) was 519, the “binding of K5-70” value (Table 7 peptide No. 7) was 932 and the “binding of K5-70” value (Table 7 peptide No. 32) was 468. For the same binder, the “binding of K5-70” value (Table 7 peptide No. 23) was 489, the “binding of K5-70” value (Table 7 peptide No. 18) was 524 and the “mean fluorescence intensity, times that with PE-labeled anti-mouse IgG only” value (human TROP-2 (hTROP-2) [1]) was 44 times. For the same binder, the Kd [2] was 6.8 pM and the “mean fluorescence intensity, times that with PE-labeled anti-mouse IgG only” value (human TROP-2 (hTROP-2) [3]) was 45 times.
